Among the targets are Nb19; Nb6; Nb12; Nb20.
Common to all, as to assay: SPR
(SPR reads the build-up and loss of mass on a sensor chip optically.)

Assay [1] deals with T1, recombinant human NEDP1 protein (human, UniProt Q96LD8 1-212).
T1 chain: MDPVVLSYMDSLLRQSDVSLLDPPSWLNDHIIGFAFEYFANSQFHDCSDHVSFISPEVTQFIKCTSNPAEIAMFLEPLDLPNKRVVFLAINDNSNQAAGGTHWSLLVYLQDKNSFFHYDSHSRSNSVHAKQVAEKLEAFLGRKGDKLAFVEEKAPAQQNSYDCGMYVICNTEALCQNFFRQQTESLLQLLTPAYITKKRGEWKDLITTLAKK

A value given as a limit tells only on which side of the number the result lay.

B1: AbR2DP12, purified His6-tagged nanobody (VHH)
VHH: QVQLQESGGGLVQAGGSLRLSCAASGSTSSFNVMAWYHQAPGKQRESVASITSGGITVYRDSVKGRFAISSDNAKNTVFLQMNSLKPEDTGVYYCGGVVDGRVYRGQGTQVTVSS
Usually Kd stands for the constant that tells how readily two partners part at equilibrium. For B1, the Kd in assay [1] was less than 0.01 nM.

B2: AbR2DP46, purified His6-tagged nanobody (VHH)
VHH: QVQLQESGGGLVQAGGSLRLSCAASGSPFSIGTMAWYRQAPGNQRASVAAITRGGATTYANSVKGRFTVSRDNAKNTVYLQMNSLKPEDTAAYYCSVWAGDRAYWGQGTQVTVSS
As to B2, the Kd in assay [1] is 6.98 nM.

B3: human NEDP1 (enzyme)
chain: T1 chain
On to B3, for which the Kd in the assay with Nb19 was 0.196 nM; with Nb6, less than 0.01 nM; in the assay with Nb12, 0.33 nM; with Nb20, 0.203 nM.

B4: AbR2DP35, purified His6-tagged nanobody (VHH)
VHH: QVQLQESGGGLVQPGGSLTLSCAASGVMFSTGVMGWYRQAPGKQREAVAAITSGGLTTYKDSVKGRFAISRDNTKSTGYLQMNRLRPEDTAVYYCNVRGYWGQGTQVTVSS
As to B4, in assay [1], the Kd is less than 0.01 nM.

B5: AbR2DP47, purified His6-tagged nanobody (VHH)
VHH: QVQLQESGGGLVEPGGSLRLSCAASGSISSINVMAWYRQAPGKQRESVAAISSFGITTYSETVKGRFTASRDNAKNTMYLQMNNLKPEDTAVYYCKGPNTDWGQGTQVTVSS
Consider B5, for which the Kd in assay [1] is 5.39 nM.
